Assay results reported in PMC12814185, “Receptor-Mediated Shuttling of a D‑Amino Acid Peptide Achieves High Nanomolar Cytosolic Concentrations” (Journal of the American Chemical Society, 2025).

Assays:
[1] = biological target: recombinant human GST-MDM2 (human), Q00987; test: fluorescence polarisation
[2] = biological target: T1, chemokine-like receptor 1 (CMKLR1), Q99788
T1 chain: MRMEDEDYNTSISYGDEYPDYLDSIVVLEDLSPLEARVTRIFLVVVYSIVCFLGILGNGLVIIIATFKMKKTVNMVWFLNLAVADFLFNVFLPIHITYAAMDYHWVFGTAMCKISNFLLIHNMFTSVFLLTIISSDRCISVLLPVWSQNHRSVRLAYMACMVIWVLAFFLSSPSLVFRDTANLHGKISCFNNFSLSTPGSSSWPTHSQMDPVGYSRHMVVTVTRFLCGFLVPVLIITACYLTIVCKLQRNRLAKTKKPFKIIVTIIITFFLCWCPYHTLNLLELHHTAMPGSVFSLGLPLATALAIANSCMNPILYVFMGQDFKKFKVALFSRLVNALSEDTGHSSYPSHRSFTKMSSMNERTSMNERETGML

Chain of recombinant human GST-MDM2 (human), Q00987 (Q00987 whole entry): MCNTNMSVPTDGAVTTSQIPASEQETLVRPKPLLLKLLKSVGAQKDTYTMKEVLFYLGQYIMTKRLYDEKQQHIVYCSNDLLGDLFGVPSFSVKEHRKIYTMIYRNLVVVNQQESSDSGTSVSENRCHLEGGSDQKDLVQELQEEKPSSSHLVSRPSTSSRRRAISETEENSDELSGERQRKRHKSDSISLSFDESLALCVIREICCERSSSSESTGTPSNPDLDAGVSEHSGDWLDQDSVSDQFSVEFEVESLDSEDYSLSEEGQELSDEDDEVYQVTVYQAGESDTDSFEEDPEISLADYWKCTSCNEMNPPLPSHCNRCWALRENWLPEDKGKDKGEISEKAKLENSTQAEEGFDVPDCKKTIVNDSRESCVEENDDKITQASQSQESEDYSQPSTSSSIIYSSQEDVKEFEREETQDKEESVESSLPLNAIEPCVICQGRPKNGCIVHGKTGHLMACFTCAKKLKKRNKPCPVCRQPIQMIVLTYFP

Kd [1]: 90 nM | Ca2+ flux assay, EC50 [2]: 220 nM
B1: Cy5-hsLMWP-PMIγ-cC9 (peptide)
chain: GSVSHHHHHHGGHHHHKDWWPLAFEALLRGEV
modifications: (EG)3 spacer between hsLMWP and D-lysine; D-lysine at 17 carrying Cy5-(EG)3 on its side chain; dwwplafeallr (residues 18-29) are D-amino acids; citrulline at 33; (EG)3 spacer between Cit and Pra; propargylglycine (Pra) at 34, joined to the azidolysine of cC9 by CuAAC; C-terminal amide | N-terminal acetyl; azidolysine at 1 (joined to Pra of the other chain by CuAAC); D-homocysteine at 5 in a …
